Data on 45 variants can be found in the supplement of paper PMC12783771.

B1: library; a variant is named by its letters at X, in order (parent)
chain: MNIQIGELAKRTACPVVTIRFYEQEGLLPPPGRSRGNFRLYGEEHVERLQFIRHCRSLDMPLSXVRTLLSYRKRPDQDCGEVXMLLDEHXRQVESRIGALLELXHXLVELREACSGARPAQSCGILQGLSDCVCDTRGTTAHXSD

Data set [1] covers variants of B1. The data set can be described thus: sfGFP reporter fluorescence (15 h) (µM FITC); higher = higher leak. As to conditions: library round: Round 3b; ligand: none. Here is the method: (§1)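 Cell-free biosensing: 1 µL Echo-assembled CFE reactions with linear PbrR variant templates (5 nM) and pPbrR-sfGFP reporter, with 1 µM Pb, 30 µM Zn or no ligand; endpoint sfGFP fluorescence after 15 h at 30 °C calibrated as µM FITC. Round 3b rational combinatorial PbrR mutants; 3 biological replicates.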

Data set [2] covers variants of B1. The data set can be described thus: sfGFP reporter fluorescence (15 h) (µM FITC); higher = stronger transcriptional activation. As to conditions: library round: Round 3b. Here is the method:
as §1

± gives the standard deviation of the averaged measurements.

For KFIVET, the sfGFP reporter fluorescence in data set [1] came out at 0.0511 ± 0.0019; in data set [2] (ligand: 1 µM Pb), 0.453 ± 0.057; in data set [2] (ligand: 30 µM Zn) it was 0.094 ± 0.006.

For the variant DNATER, the sfGFP reporter fluorescence in data set [1] is 0.0446 ± 0.0017; in data set [2] (ligand: 1 µM Pb), 0.0458 ± 0.0017; in data set [2] (ligand: 30 µM Zn) it was 0.0522 ± 0.0022.

As for DNATET, the sfGFP reporter fluorescence amounted to 0.0419 ± 0.00051 in data set [1], 0.0463 ± 0.0026 in data set [2] (ligand: 1 µM Pb) and 0.0623 ± 0.0031 in data set [2] (ligand: 30 µM Zn).

KNITET: the sfGFP reporter fluorescence in data set [1] was determined as 0.0629 ± 0.0071; in data set [2] (ligand: 1 µM Pb) it was 0.318 ± 0.015; in data set [2] (ligand: 30 µM Zn), 0.944 ± 0.15.

Regarding KNITER, the sfGFP reporter fluorescence was 0.0631 ± 0.0055 in data set [1], 0.311 ± 0.029 in data set [2] (ligand: 1 µM Pb) and 0.926 ± 0.12 in data set [2] (ligand: 30 µM Zn).

As to KFIKAT, the figures for the sfGFP reporter fluorescence in data set [1], in data set [2] (ligand: 1 µM Pb) and in data set [2] (ligand: 30 µM Zn) were 0.0418 ± 0.0013, 0.169 ± 0.015 and 0.0513 ± 0.0024, respectively.

In the case of DIATER, the sfGFP reporter fluorescence in data set [1] amounted to 0.0429 ± 0.0012; in data set [2] (ligand: 1 µM Pb) it was 0.0627 ± 0.0026; in data set [2] (ligand: 30 µM Zn), 0.0413 ± 0.00067.

Take DIATET: the sfGFP reporter fluorescence in data set [1] worked out at 0.0419 ± 0.0022; in data set [2] (ligand: 1 µM Pb), 0.0628 ± 0.00089; in data set [2] (ligand: 30 µM Zn), 0.0452 ± 0.0012.

Take DIATEP: the results for the sfGFP reporter fluorescence in data set [1], in data set [2] (ligand: 1 µM Pb) and in data set [2] (ligand: 30 µM Zn) were 0.046 ± 0.0012, 0.0616 ± 0.0042 and 0.0456 ± 0.0029, respectively.

In the case of KIATAP, the sfGFP reporter fluorescence came to 0.0703 ± 0.0043 in data set [1], 1.26 ± 0.096 in data set [2] (ligand: 1 µM Pb) and 0.0679 ± 0.006 in data set [2] (ligand: 30 µM Zn).

Turning to KIATAR, the sfGFP reporter fluorescence in data set [1] was determined as 0.069 ± 0.0014; in data set [2] (ligand: 1 µM Pb), 1.49 ± 0.15; in data set [2] (ligand: 30 µM Zn), 0.0681 ± 0.0007.

Regarding KIATAT, the results for the sfGFP reporter fluorescence in data set [1], in data set [2] (ligand: 1 µM Pb) and in data set [2] (ligand: 30 µM Zn) were 0.0691 ± 0.0019, 1.29 ± 0.062 and 0.0697 ± 0.0016, respectively.

For the variant KIIKAT, the sfGFP reporter fluorescence in data set [1] amounted to 0.0413 ± 0.0042; in data set [2] (ligand: 1 µM Pb) it was 0.17 ± 0.027; in data set [2] (ligand: 30 µM Zn), 0.0483 ± 0.0033.

Turning to KNAKAT, the sfGFP reporter fluorescence in data set [1] was found to be 0.0671 ± 0.0058; in data set [2] (ligand: 1 µM Pb), 0.353 ± 0.02; in data set [2] (ligand: 30 µM Zn), 0.795 ± 0.18.

Take KNAKAR: the sfGFP reporter fluorescence was determined as 0.0687 ± 0.0037 in data set [1], 0.394 ± 0.045 in data set [2] (ligand: 1 µM Pb) and 0.754 ± 0.11 in data set [2] (ligand: 30 µM Zn).

KNITAT: the sfGFP reporter fluorescence in data set [1] was 0.0655 ± 0.0027; in data set [2] (ligand: 1 µM Pb), 0.358 ± 0.021; in data set [2] (ligand: 30 µM Zn), 0.972 ± 0.077.

Take KNITAR: the figures for the sfGFP reporter fluorescence in data set [1], in data set [2] (ligand: 1 µM Pb) and in data set [2] (ligand: 30 µM Zn) were 0.0701 ± 0.0068, 0.379 ± 0.032 and 1.07 ± 0.19, respectively.

Turning to KNAVER, the sfGFP reporter fluorescence in data set [1] worked out at 0.0532 ± 0.0015; in data set [2] (ligand: 1 µM Pb), 0.334 ± 0.025; in data set [2] (ligand: 30 µM Zn) it was 0.313 ± 0.04.

In the case of KNAVET, the sfGFP reporter fluorescence in data set [1] is 0.0522 ± 0.0014; in data set [2] (ligand: 1 µM Pb), 0.261 ± 0.01; in data set [2] (ligand: 30 µM Zn) it was 0.223 ± 0.016.

KNAVEP: the figures for the sfGFP reporter fluorescence in data set [1], in data set [2] (ligand: 1 µM Pb) and in data set [2] (ligand: 30 µM Zn) were 0.0529 ± 0.0031, 0.235 ± 0.021 and 0.211 ± 0.024, respectively.

On to KIIKET, for which the sfGFP reporter fluorescence in data set [1] is 0.0423 ± 0.0019; in data set [2] (ligand: 1 µM Pb), 0.128 ± 0.0066; in data set [2] (ligand: 30 µM Zn), 0.0466 ± 0.001.

In the case of KIIKER, the sfGFP reporter fluorescence in data set [1] worked out at 0.0441 ± 0.0037; in data set [2] (ligand: 1 µM Pb), 0.149 ± 0.017; in data set [2] (ligand: 30 µM Zn) it was 0.0485 ± 0.0035.

As for DIIVAT, the sfGFP reporter fluorescence in data set [1] was found to be 0.0468 ± 0.0037; in data set [2] (ligand: 1 µM Pb), 0.131 ± 0.0097; in data set [2] (ligand: 30 µM Zn), 0.0469 ± 0.005.

In the case of KIITER, the sfGFP reporter fluorescence in data set [1] worked out at 0.0454 ± 0.0026; in data set [2] (ligand: 1 µM Pb), 0.266 ± 0.0032; in data set [2] (ligand: 30 µM Zn) it was 0.0497 ± 0.0018.

Take KIITEP: the sfGFP reporter fluorescence in data set [1] was found to be 0.0456 ± 0.0027; in data set [2] (ligand: 1 µM Pb) it was 0.301 ± 0.011; in data set [2] (ligand: 30 µM Zn), 0.0508 ± 0.0019.

With KIITET, the sfGFP reporter fluorescence in data set [1] stood at 0.0468 ± 0.0019; in data set [2] (ligand: 1 µM Pb) it was 0.265 ± 0.01; in data set [2] (ligand: 30 µM Zn), 0.0513 ± 0.0034.

For KFIKET, the sfGFP reporter fluorescence in data set [1] stood at 0.0439 ± 0.002; in data set [2] (ligand: 1 µM Pb), 0.135 ± 0.0014; in data set [2] (ligand: 30 µM Zn), 0.0531 ± 0.0027.

For the variant KFIKER, the sfGFP reporter fluorescence came to 0.0412 ± 0.0027 in data set [1], 0.147 ± 0.0078 in data set [2] (ligand: 1 µM Pb) and 0.0496 ± 0.0038 in data set [2] (ligand: 30 µM Zn).

For the variant KIAKEP, the sfGFP reporter fluorescence in data set [1] came out at 0.052 ± 0.0034; in data set [2] (ligand: 1 µM Pb), 0.387 ± 0.02; in data set [2] (ligand: 30 µM Zn), 0.051 ± 0.0007.

Consider KIAKER, for which the sfGFP reporter fluorescence in data set [1] was 0.0554 ± 0.0012; in data set [2] (ligand: 1 µM Pb), 0.614 ± 0.024; in data set [2] (ligand: 30 µM Zn), 0.0592 ± 0.0041.

With KIAKET, the sfGFP reporter fluorescence in data set [1] worked out at 0.0531 ± 0.0032; in data set [2] (ligand: 1 µM Pb), 0.4674 ± 0.0044; in data set [2] (ligand: 30 µM Zn) it was 0.057 ± 0.0063.

With KIIVHT, the sfGFP reporter fluorescence amounted to 0.053 ± 0.0034 in data set [1], 0.673 ± 0.034 in data set [2] (ligand: 1 µM Pb) and 0.101 ± 0.015 in data set [2] (ligand: 30 µM Zn).

In the case of KIIVEP, the figures for the sfGFP reporter fluorescence in data set [1], in data set [2] (ligand: 1 µM Pb) and in data set [2] (ligand: 30 µM Zn) were 0.0554 ± 0.0036, 0.372 ± 0.031 and 0.0556 ± 0.0028, respectively.

For the variant KIIVET, the sfGFP reporter fluorescence is 0.0535 ± 0.0022 in data set [1], 0.346 ± 0.015 in data set [2] (ligand: 1 µM Pb) and 0.0557 ± 0.0014 in data set [2] (ligand: 30 µM Zn).

DIIVET: the sfGFP reporter fluorescence in data set [1] worked out at 0.0433 ± 0.0015; in data set [2] (ligand: 1 µM Pb), 0.0933 ± 0.0025; in data set [2] (ligand: 30 µM Zn), 0.0469 ± 0.0019.

Regarding DIIVER, the figures for the sfGFP reporter fluorescence in data set [1], in data set [2] (ligand: 1 µM Pb) and in data set [2] (ligand: 30 µM Zn) were 0.0467 ± 0.0027, 0.0917 ± 0.0042 and 0.047 ± 0.0038, respectively.

As to KNAKET, the sfGFP reporter fluorescence in data set [1] is 0.0595 ± 0.0029; in data set [2] (ligand: 1 µM Pb), 0.248 ± 0.0068; in data set [2] (ligand: 30 µM Zn) it was 0.569 ± 0.068.

For the variant KNAKER, the values for the sfGFP reporter fluorescence in data set [1], in data set [2] (ligand: 1 µM Pb) and in data set [2] (ligand: 30 µM Zn) were 0.0626 ± 0.0049, 0.296 ± 0.036 and 0.621 ± 0.066, respectively.

Consider DIITAR, for which the sfGFP reporter fluorescence in data set [1] was 0.0463 ± 0.0055; in data set [2] (ligand: 1 µM Pb), 0.0691 ± 0.0046; in data set [2] (ligand: 30 µM Zn), 0.0465 ± 0.0022.

Regarding DIITAT, the sfGFP reporter fluorescence in data set [1] is 0.0431 ± 0.0041; in data set [2] (ligand: 1 µM Pb), 0.0634 ± 0.005; in data set [2] (ligand: 30 µM Zn) it was 0.0426 ± 0.0034.

For DIAKER, the sfGFP reporter fluorescence in data set [1] is 0.0433 ± 0.0047; in data set [2] (ligand: 1 µM Pb) it was 0.0512 ± 0.0021; in data set [2] (ligand: 30 µM Zn), 0.0452 ± 0.0035.

As for DIAKET, the sfGFP reporter fluorescence in data set [1] stood at 0.0419 ± 0.00078; in data set [2] (ligand: 1 µM Pb) it was 0.0472 ± 0.0015; in data set [2] (ligand: 30 µM Zn) it was 0.0466 ± 0.0026.

Take KNAVAT: the sfGFP reporter fluorescence worked out at 0.045 ± 0.0035 in data set [1], 0.155 ± 0.0086 in data set [2] (ligand: 1 µM Pb) and 0.237 ± 0.018 in data set [2] (ligand: 30 µM Zn).

For the variant KNAVAR, the results for the sfGFP reporter fluorescence in data set [1], in data set [2] (ligand: 1 µM Pb) and in data set [2] (ligand: 30 µM Zn) were 0.0498 ± 0.001, 0.195 ± 0.018 and 0.309 ± 0.028, respectively.

For the variant KNAVAP, the sfGFP reporter fluorescence in data set [1] is 0.0482 ± 0.0035; in data set [2] (ligand: 1 µM Pb) it was 0.142 ± 0.0073; in data set [2] (ligand: 30 µM Zn), 0.214 ± 0.025.
